This assay deals with T1, GST-Ppc89(545-687) (S. pombe, UniProt Q10218 545-687).
T1 sequence (looked up): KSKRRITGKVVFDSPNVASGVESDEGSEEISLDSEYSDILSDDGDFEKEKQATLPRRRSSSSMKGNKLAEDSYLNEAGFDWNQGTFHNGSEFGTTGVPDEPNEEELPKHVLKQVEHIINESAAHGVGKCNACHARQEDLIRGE
The experiment in a line: pull-down; 10 µg GST-Ppc89 bound to GST beads, blocked with 5% BSA, 10 µg MBP-Sid4 added, 30 min at 4°C in GST-bind buffer (4.3 mM sodium phosphate pH 7.3, 137 mM NaCl, 2.7 mM KCl, 1 mM DTT, 0.1% NP-40); washes up to 300 mM NaCl; SDS-PAGE, Coomassie blue. The settings on record: both partners purified.

From publication PMC11708228, “New mutations in the core Schizosaccharomyces pombe spindle pole body scaffold Ppc89 reveal separable functions in regulating cell division” (G3: Genes | Genomes | Genetics, 2024) come the findings set out here.

B1: MBP-Sid4(546-660) (domain or fragment, S. pombe, UniProt O60187 546-660, looked up)
chain: SQPLTSLNMPDSRFNLAKEKQLYYRLGLQHIDQQCSVETANMLKTVLVQLNIPFAIFPSTIGQVRRQLQQGRRLYQWARNIHYLIYEENMRDGLVSKQCLADMLKKIRELKKRSL
notes: Sid4, S. pombe, 660 aa, residues 546-660 (predicted α-helices 7-11); source: Rosetta2(DE3)pLysS bacteria, purified (amylose resin)
As to B1, the binding result is given as “binds”.
